Values of other authors as cited in paper PMC3849016.
pKd: −log10 of the molar value.

Target: VEGFR2 (vascular endothelial growth factor receptor 2) (UniProt P35968)
Details: printed Z = 5-N-(benzylcarboxyamide)-2'-deoxyuridine (BzdU), written here as U at every Z; all other residues are DNA; 5' H2N-C6; not stated for the supplier …

Chain of UniProt P35968 (P35968 whole entry): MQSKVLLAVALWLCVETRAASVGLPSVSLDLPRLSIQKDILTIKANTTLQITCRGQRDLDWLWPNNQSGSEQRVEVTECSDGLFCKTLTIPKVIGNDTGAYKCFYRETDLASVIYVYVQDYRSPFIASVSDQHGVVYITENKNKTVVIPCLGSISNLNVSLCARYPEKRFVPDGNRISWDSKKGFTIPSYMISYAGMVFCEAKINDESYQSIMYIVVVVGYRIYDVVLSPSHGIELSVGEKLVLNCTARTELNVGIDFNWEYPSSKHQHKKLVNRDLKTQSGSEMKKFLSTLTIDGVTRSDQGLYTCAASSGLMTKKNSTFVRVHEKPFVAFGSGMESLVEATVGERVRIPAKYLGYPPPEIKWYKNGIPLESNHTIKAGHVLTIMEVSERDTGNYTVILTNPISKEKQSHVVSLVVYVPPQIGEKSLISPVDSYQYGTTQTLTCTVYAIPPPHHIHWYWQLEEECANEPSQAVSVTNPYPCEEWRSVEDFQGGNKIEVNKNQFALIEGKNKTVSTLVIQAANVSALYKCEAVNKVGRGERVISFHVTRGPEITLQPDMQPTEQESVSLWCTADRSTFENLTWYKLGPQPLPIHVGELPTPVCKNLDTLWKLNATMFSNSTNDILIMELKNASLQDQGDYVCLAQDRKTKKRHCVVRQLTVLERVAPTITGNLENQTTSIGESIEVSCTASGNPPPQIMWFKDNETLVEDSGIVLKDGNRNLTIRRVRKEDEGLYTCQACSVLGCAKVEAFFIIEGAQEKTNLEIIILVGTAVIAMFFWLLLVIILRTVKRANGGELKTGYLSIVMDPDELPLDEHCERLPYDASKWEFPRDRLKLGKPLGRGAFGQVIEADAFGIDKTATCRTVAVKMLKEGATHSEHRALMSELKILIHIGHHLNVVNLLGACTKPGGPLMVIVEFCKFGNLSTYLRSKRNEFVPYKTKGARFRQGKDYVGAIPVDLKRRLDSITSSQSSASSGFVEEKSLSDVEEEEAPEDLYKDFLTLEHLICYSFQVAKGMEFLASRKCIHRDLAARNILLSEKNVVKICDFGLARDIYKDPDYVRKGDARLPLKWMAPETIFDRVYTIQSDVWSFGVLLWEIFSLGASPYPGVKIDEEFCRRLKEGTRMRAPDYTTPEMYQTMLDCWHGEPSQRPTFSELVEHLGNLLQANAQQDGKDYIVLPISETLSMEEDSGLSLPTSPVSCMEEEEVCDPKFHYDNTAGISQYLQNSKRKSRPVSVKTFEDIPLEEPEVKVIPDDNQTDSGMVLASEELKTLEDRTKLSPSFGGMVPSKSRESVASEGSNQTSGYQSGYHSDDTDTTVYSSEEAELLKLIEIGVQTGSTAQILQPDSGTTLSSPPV

For “ACGAGCUACGACGUCUGGUGUAAUUUAUAAAGACACUGUGUAUAUCAACAA [anti-VEGFR2 DNA aptamer (Aptamer Science Cat. 186)]”, the pKd is listed as 9.92.
